# According to paper PMC4681064:
# Legend:
# Assay in all cases: GST pulldown, Western blot densitometry
# Details in all cases: incubated overnight with lysates; GST-only control 10 (PA2 lysate), 8 (WT lysate)
# [1] = target: GST-tagged CMS SH3 domain I
# [2] = target: GST-tagged CMS SH3 domain III
# [3] = target: GST-tagged CMS SH3 domain II
substance,measurement,setting,value
HCV NS5A protein (WT) expressed from SGR-neo-JFH-1 (from UniProt Q99IB8) PA2: P2 motif PTPPPR -> ATPAAA (P->A; P->A; P->A; R->A; residue numbers not printed),response (NS5A:GST-SH3 ratio (%)),[1],16
same,response (NS5A:GST-SH3 ratio (%)),[2],10
same,response (NS5A:GST-SH3 ratio (%)),[3],9
